Like-named read-outs stand apart in the source and are kept apart here.
T1: untagged human LY6G6D extracellular domain (construct used for structural studies) (human)
T1 chain: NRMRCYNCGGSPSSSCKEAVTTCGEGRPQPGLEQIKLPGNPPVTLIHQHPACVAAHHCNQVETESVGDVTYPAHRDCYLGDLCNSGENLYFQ


Experiments:
[1] = molecular target: T2, human LY6G6D (recombinant protein of the BIAcore kinetics and of the epitope binning) (Homo sapiens, UniProt O95868); assay: SPR
[2] = molecular target: T1, untagged human LY6G6D extracellular …; assay: SEC-MALS
[3] = molecular target: T2, human LY6G6D (recombinant protein of …); assay: SPR; remark: listed apart in the source

Row | binding result [1] | stoichiometry N [2] | binding result [3] | Binder
1 | binds | 1 | – | 1G4 Fab (Fab, V domains shown) VH: EVQLQQSGPELVKPGASVKMSCKASGYTFTTYVMHWVQQKPGQGLEWIGYINPYNDGTKYNEKFKGKATLTSDTSSSTAYMELSSLTSDDSAVYYCGRRNFDYWGQGTLVTVSS VL: DILMTQSPSSLTVSAGEKVTMSCKSSQSLLLSGNQENYLAWHQQKPGRSPKTLITWASTRISGVSDRFIGSGSGTDFTLTINSVQAEDLAVYYCQQSYSAPYTFGQGTKVEIK
2 | – | – | binds | anti-LY6G6D murine mAb clone 1G4 (antibody, V domains shown) VH: EVQLQQSGPELVKPGASVKMSCKASGYTFTTYVMHWVQQKPGQGLEWIGYINPYNDGTKYNEKFKGKATLTSDTSSSTAYMELSSLTSDDSAVYYCGRRNFDYWGQGTLVTVSS VL: DILMTQSPSSLTVSAGEKVTMSCKSSQSLLLSGNQENYLAWHQQKPGRSPKTLITWASTRISGVSDRFIGSGSGTDFTLTINSVQAEDLAVYYCQQSYSAPYTFGQGTKVEIK

From article PMC9381132 (Molecular Cancer Therapeutics, 2022)
